For this assay, the target named is TNF-alpha. The assay is described as follows: cell-based or functional assay. Also noted: unit not given beside the values.
Chain of TNFR2-h(1)Fc (chain): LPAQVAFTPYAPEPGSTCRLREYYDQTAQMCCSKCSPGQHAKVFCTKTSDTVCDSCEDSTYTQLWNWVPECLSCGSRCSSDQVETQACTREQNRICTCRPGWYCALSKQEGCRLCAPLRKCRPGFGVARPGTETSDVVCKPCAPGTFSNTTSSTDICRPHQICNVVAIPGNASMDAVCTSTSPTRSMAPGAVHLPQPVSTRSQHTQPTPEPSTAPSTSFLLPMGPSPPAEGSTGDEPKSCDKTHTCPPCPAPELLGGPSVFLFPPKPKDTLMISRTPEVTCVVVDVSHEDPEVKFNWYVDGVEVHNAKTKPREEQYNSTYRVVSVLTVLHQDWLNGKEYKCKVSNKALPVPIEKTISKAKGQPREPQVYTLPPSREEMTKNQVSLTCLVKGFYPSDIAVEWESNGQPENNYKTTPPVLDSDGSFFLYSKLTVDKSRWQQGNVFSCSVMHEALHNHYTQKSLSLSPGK
D47N S202N TNFR2-h(1)Fc (Fc fusion) showed an IC50 (WEHI Assay), normalized (normalized to TNFR2-h(1)Fc wt) of 1.1.
Substance D47N TNFR2-h(1)Fc (Fc fusion) yielded an IC50 (WEHI Assay), normalized (normalized to TNFR2-h(1)Fc wt) of 1.9.
D47N/E155N TNFR2-h(1)Fc (Fc fusion): the IC50 (WEHI Assay), normalized (normalized to TNFR2-h(1)Fc wt) was determined as 1.6.
The value for D47N/G253N TNFR2-h(1)Fc (Fc fusion) was 3; that for E155N G253N TNFR2-h(1)Fc (Fc fusion) was 0.57.
As for “E155N S202N G253N TNFR2-h(1)Fc (Fc fusion)”, the figure is 0.25; as for S202N G253N TNFR2-h(1)Fc (Fc fusion), 0.23; as for T203N P205S TNFR2-h(1)Fc (Fc fusion), 0.29.
As for T222N TNFR2-h(1)Fc (Fc fusion), the IC50 (WEHI Assay), normalized (normalized to TNFR2-h(1)Fc wt) worked out at 0.25.
Consider TNFR2-h(1)Fc (Fc fusion), for which the IC50 (WEHI Assay), normalized (normalized to TNFR2-h(1)Fc wt) was found to be 1.
